Measurements as given in US20240325526A1.
Numbering of substitutions follows the chain as printed.

B1: CASP1_RV2_D143A (protein)
chain: MSEEDFLTDAIFEDDGIKKAHIEKDFIAFCSSTPDNVSWRHPVRGSLFIESLIKHMKEYAWSCDLEDIFRKVRFSFEQPEFRLQMPTADRVTLTKRFYLFPGHLLVCDVPIRAPSAETFVATEDSKGGHPSSSETKEEQNKEAGTFPGLTGTLKFCPLEKAQKLWKENPSEIYPIMNTTTRTRLALIICNTEFQHLSPRVGAQVDLREMKLLLEDLGYTVKVKENLTALEMVKEVKEFAACPEHKTSDSTFLVFMSHGIQEGICGTTYSNEVSDILKVDTIFQMMNTLKCPSLKDKPKVIIIQACRGEKQGVVLLKD
B2: CASP1_RV2_D108A (protein)
chain: B1 chain with D108A, A143D
B3: CASP1_RV2_D108A_D124A_D143A (protein)
chain: B1 chain with D108A, D124A
B4: CASP1_RV2_D124A (protein)
chain: B1 chain with D124A, A143D
B5: hCASP1_RV2_D108A (protein)
chain: MGNLSLPTTEEFEDDAIKKAHIEKDFIAFCSSTPDNVSWRHPTMGSVFIGRLIEHMQEYACSCDVEEIFRKVRFSFEQPDGRAQMPTTERVTLTRCFYLFPGHAYVHAAPVRDQTSGNYLNMQDSQGVLSSFPAPQAVQDNPAMPTSSGSEGNVKLCSLEEAQRIWKQKSAEIYPIMDKSSRTRLALIICNEEFDSIPRRTGAEVDITGMTMLLQNLGYSVDVKKNLTASDMTTELEAFAHRPEHKTSDSTFLVFMSHGIREGICGKKHSEQVPDILQLNAIFNMLNTKNCPSLKDKPKVIIIQACRGDSPGVVWFKD
B6: hCASP1_RV2_D124A (protein)
chain: B5 chain with A108D, D124A
B7: hCASP1_RV2_D140A (protein)
chain: B5 chain with A108D, D140A

Key:
[1] = target: IL1B_FL (Mus musculus wild-type pro-IL1β) (Mus musculus) (UniProt P10749); assay: cell-based or functional assay
[2] = target: T1, IL1B_FL (Mus musculus wild-type pro-IL1β)
T1 chain: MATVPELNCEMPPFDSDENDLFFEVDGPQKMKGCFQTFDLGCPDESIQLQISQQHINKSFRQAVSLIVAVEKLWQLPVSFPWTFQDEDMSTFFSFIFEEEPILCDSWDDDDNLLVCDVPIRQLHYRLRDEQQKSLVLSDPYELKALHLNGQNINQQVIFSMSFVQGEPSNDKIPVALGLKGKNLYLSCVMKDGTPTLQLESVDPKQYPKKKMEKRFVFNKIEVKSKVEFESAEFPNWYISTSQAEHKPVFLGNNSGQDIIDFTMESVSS

[3] = target: hIL1B_FL (human wild-type pro-IL1β)

Molecule | ability to process pro-IL1β (data not shown) [2] | ability to process pro-IL1β (data not shown) [3] | further results
CASP1_RV2 (constitutively active murine caspase-1, p10 and p20 domain reversal, N-terminal p20 remnant removed) (from UniProt P29452 92-296) (enzyme) | – | – | potency against CASP1 WT; IL-1β and LDH activity in supernatants of B16-F10 cells co-transfected with pro-IL1β plasmid [1]: 30 fold
B1 | did not significantly affect their ability to process pro-IL1β | – | –
B2 | did not significantly affect their ability to process pro-IL1β | – | –
B3 | did not significantly affect their ability to process pro-IL1β | – | –
B4 | did not significantly affect their ability to process pro-IL1β | – | –
B5 | – | did not significantly affect their ability to process pro-IL1β | –
B6 | – | did not significantly affect their ability to process pro-IL1β | –
B7 | – | did not significantly affect their ability to process pro-IL1β | –
